Test results from US10619138B2, “Herbicide-resistant hydroxyphenylpyruvate dioxygenases” (BASF SE, priority 2013, dated 2020).

Substrate: O=C(O)C(=O)Cc1ccc(O)cc1
Assay: purified protein, by the assay type
Settings: other: pH 7.0, apparent, substrate inhibition model, 20.0 °C

B1: Arabidopsis thaliana HPPD, wild type, SEQ ID NO: 42 (Arabidopsis thaliana) (protein)
chain: MGHQNAAVSENQNHDDGAASSPGFKLVGFSKFVRKNPKSDKFKVKRFHHIEFWCGDATNVARRFSWGLGMRFSAKSDLSTGNMVHASYLLTSGDLRFLFTAPYSPSLSAGEIKPTTTASIPSFDHGSCRSFFSSHGLGVRAVAIEVEDAESAFSISVANGAIPSSPPIVLNEAVTIAEVKLYGDVVLRYVSYKAEDTEKSEFLPGFERVEDASSFPLDYGIRRLDHAVGNVPELGPALTYVAGFTGFHQFAEFTADDVGTAESGLNSAVLASNDEMVLLPINEPVHGTKRKSQIQTYLEHNEGAGLQHLALMSEDIFRTLREMRKRSSIGGFDFMPSPPPTYYQNLKKRVGDVLSDDQIKECEELGILVDRDDQGTLLQIFTKPLGDRPTIFIEIIQRVGCMMKDEEGKAYQSGGCGGFGKGNFSELFKSIEEYEKTLEAKQLVG
Work on B1 yielded a Km of 13 µM, a kcat of 12.9 s⁻¹ and a kcat/Km of 1e+06 M⁻¹ s⁻¹.
